Substitutions are numbered along the chain they refer to.
T1: Monomeric hAng-2FD (human, UniProt O15123 282-496)
T1 construct: also called fibrinogen-like domain of human Ang2; Human Ang-2FD
T1 sequence: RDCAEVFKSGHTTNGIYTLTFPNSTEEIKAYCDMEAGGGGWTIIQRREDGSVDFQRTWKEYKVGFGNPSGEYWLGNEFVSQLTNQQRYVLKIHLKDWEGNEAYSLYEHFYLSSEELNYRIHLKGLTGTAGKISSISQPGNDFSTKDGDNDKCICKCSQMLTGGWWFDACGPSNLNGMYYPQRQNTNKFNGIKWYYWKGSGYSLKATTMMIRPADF

T2: wild-type human Ang-2 (hAng-2-WT) (human, UniProt O15123 19-496)
T2 construct: called full-length wild-type; also called Full-length wild-type human Ang-2
T2 sequence: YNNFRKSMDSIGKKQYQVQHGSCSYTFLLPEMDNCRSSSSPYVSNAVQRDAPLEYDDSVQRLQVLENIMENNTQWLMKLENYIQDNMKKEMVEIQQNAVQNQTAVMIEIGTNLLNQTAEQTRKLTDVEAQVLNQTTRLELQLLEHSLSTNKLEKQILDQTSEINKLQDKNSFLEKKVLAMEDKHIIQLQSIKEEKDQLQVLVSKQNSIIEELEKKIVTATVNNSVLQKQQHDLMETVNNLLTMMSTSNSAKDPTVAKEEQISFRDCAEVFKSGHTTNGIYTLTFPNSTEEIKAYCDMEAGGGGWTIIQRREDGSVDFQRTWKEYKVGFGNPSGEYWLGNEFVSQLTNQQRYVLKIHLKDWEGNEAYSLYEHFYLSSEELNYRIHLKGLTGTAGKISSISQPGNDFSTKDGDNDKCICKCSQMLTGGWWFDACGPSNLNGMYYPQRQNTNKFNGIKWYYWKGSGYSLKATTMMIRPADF

B1: H1H750N (antibody, V domains shown)
VH: QVKLVESGGGVVQPGRSLRVSCAASGFTFSSYGMHWVRQAPGKGLEWLAIIWYDGDNKYYSDSVKGRFTISRDNSKNTLYLQMNSLRAEDTAEYYCVRDASIASRFLDYWGQGTLVTVSS
VL: DIQMTQSPSSLSASIGDRVTITCRATQDINNYLAWFQQKPGKAPKSLIYATSNLQSGVPSKFSGSGSGTDYTLTISSLQPEDFSTYYCQQYHSYPLTFGGGTKVEIK
B2: H1H749N (antibody, V domains shown)
VH: QVQLVESGGGVVQPGRSLRLSCAASGFTFSSYGMHWVRQAPGKGLEWVAVIWYDEFNKYYADSVKGRFTISRDNSKNTLYLQMNSLRAEDTAVYYCARERESGYSYGFDYWGQGTLVTVSS
VL: EIVMTQSPATLSVSPGERATLSCRAGQSVSSNLAWYQQKPGQAPRLLIYGASTRATGIPARFSGSGSGTEFTLTISSLQSEDFAVYYCQQYNNWWTFGQGTKVEIK
B3: H1H724N (antibody, V domains shown)
VH: QVQLVESGGGVVQPGRSLRLSCAASGFTLSNYGMHWVRQAPGKGLEWVAVIWHDGSNTYYADSVKGRFTISRDNSKNTLYLQMNSLRAEDTAVYYCTREGLDFWSGYYPNWFDPWGQGTLVTVSS
VL: DIQMTQSPSSLSASVGDRVTITCRASQGIRNDLGWYQQKPGKAPKRLIYAASNLQGGVPSRFSGSGSGTEFTLTISSLQPEDFAAYYCLQHNIYPLTFGGGTKVEIK
B4: H1H732N (antibody, V domains shown)
VH: EVQLVESGGGLVRPGGSLRLSCAASGFTFTNAWMSWVRQAPGKGLEWIGQIKSKTDGGTIDYAAPVKGRFTVSRDDSENTLFLQMNSLKTEDTAVYYCAGNWNYVDFDYWGQGTLVTVSS
VL: B3 VL with G28D, N53S, A85T, I93S, L96F, G100P, E105D
B5: H1H706P (antibody, V domains shown)
VH: QVQLVESGGGVVQPGRSLRLSCAASGFTFSSYGMHWVRQAPDKGLEWVAVKWDDGSNKYYADSVKGRFTISRDNSKNTLYLQMNSLRAEDTAVYYCAREGPYDFYSGYGAFDIWGQGTMVTVSS
VL: DIQMTQSPSSLSASVGDRVTITCRASQGISNYLAWFQQKPGKAPKSLIYAASSLQSGVPSKFSGSGSGTDFTLTISSLQPEDFATYYCQQYNSYPRTFGQGTKVEIK
B6: H1H728N (antibody, V domains shown)
VH: EVQLVESGGDLVQPGGSLRLSCTASGFTFSKYWMTWVRQAPGRGLEWVANIKEDGNEKYFLDSVKGRFTISRDNAKDLLFLQMNSLRGEDTAVYYCVRDRGIEVAGPFDYWGQGTLVTVSS
VL: DIQMTQSPSTLSASVGDRVTVTCRASQTIINWLAWYQQKPGKAPKLLISKASSLESGVPSRFSGSGSGTEFTLTISSLQPDDFATYYCQQYNRYWTFGQGTMVEIK
B7: H1H730N (antibody, V domains shown)
VH: EVQLVESGGGLVQPGGSLRLSCAASGFAFRSYWMTWVRQAPGKGLEWVANIQQDGNDKYYVDSVKGRFTISRDNAKNSLYLQMNSLRAEDTAVYYCARDTGIAEAGPFDYWGQGTLVTVSS
VL: B6 VL with T20S, V21I, N31S, K45R, S49Y, S76N, M102K
B8: H1H742N (antibody, V domains shown)
VH: DVQLLESGGDLVQPGGSLRLSCEASGFTFRNYVMIWVRQAPGKGLEWVSGISNSGGTTHYTDSVKGRFTISRDNSKNTLYLQINSLRAEDTAVYYCAKGYLDTSLIEGNWFDPWGQGTLVTVSS
VL: NIVMTQSPLSLPVTPGEPASISCRSSQSLLHSNGFNYLNWFLQKPGQSPQLLIYLGSNRASGVPDKFSGSGSGTDFTLNINRVEAEDVGIYFCMQTLQTPLTFGGGTKVEIK
B9: H1H704P (antibody, V domains shown)
VH: QVQLVESGGDVVQPGRSLRLSCAASGFTFSSYGMHWVRQAPGKGLEWVAIIWYDGSNKYYADSVKGRFTISRDNSKNTLYLQMNSLRVEDTAVYSCARDFSISSRHFDYWGQGTLVTVSS
VL: DIQMTQSPSSLSASVGDRVTITCRASQAINNYLAWFQQKPGKAPKSLIYATSNLQSGVPSQFSGSGSGTDYTLTISSLQPEDFATYYCQQYYIYPITFGQGTRLEIK
B10: H1H743N (antibody, V domains shown)
VH: EVQLLESGGGLVQPGGSLRLSCAASGFTFRKYAMSWVRQAPGKGLEWVSVISVSGGNTYYADSVKGRFTISRDNSKNTLYLQLNSLRAEDTAVYYCAKDLTDIVLMVYVDYWGQGTLVTVSS
VL: DIQMTQSPSSVSASVGDRVTITCRASQDIDRWLAWYQQKPGKAPKLLIYAASSLQSGVPSRFSGSGSGTDFTLTISTLQPEDFATYYCQQANSLPFTFGGGTKVEIK
B11: H1H691P (antibody, V domains shown)
VH: EVQLVESGGGLVQPGRSLRLSCAASGFTFDDYAMHWVRQAPGKGLEWVSGISWNSGDIGYADSVKGRFTISRDNAKNSLYLQMNSLRAQDTALYYCAKAYGDYYYFYGMDVWGQGTTVTVS
VL: EIVLTQSPGTLSLSPGERATLSCRASQSVSSSYLAWYQQKPGQAPRLLIFSASSRATGIPDRFSGSGSGTDFTLTISRLEPEDFAVYYCQQYDNSLTFGGGTKVEIK
B12: H1H707P (antibody, V domains shown)
VH: B5 VH
VL: not shown

The binders below were run against T3, human bow-Ang-2 tetrameric construct (hBA2) (human) (assay: SPR, captured Ab).
T3 construct: also called human BA2; hBA2-hIgG1
T3 sequence (chain, as listed by the source limits assumed): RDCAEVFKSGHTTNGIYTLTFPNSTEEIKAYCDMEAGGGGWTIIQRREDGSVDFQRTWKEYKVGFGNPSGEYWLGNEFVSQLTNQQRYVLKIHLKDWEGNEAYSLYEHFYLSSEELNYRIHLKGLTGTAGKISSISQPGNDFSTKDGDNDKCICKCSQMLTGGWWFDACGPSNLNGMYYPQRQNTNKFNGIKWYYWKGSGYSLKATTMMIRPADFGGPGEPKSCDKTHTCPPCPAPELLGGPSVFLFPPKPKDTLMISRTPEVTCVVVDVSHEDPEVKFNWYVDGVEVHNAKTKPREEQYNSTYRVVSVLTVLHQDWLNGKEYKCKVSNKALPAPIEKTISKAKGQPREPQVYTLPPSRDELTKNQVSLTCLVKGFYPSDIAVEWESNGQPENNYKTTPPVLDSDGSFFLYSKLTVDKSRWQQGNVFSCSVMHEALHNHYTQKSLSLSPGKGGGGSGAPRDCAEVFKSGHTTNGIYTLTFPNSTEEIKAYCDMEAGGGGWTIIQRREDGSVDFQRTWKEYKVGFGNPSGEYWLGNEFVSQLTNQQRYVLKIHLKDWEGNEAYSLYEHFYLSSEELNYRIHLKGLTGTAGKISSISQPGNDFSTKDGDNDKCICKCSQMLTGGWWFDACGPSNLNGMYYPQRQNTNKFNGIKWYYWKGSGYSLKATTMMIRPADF

Binder | Kd [nM] | T1/2 [h]
B1 | 0.0369 | 4.73
B2 | 0.0325 | 3.92
B3 | 0.0233 | 5.38
B4 | 0.132 | 1.22
B5 | 0.0791 | 1.06
B6 | 0.0418 | 3.08
B7 | 0.0559 | 2.53
B8 | 0.0721 | 1.45
B9 | 0.0939 | 1.96
B10 | 0.00971 | 18.6

What follows are binders tested against T1, Monomeric hAng-2FD (assay: SPR, captured Ab).

Binder | Kd [nM] | T1/2 [h]
B1 | 0.787 | 0.503
B2 | 1.13 | 0.558
B3 | 2.4 | 0.222
B4 | 264 | 0.00367
B5 |  | 0.017
B6 | 1.18 | 0.0977
B7 | 2.84 | 0.0573
B8 | 486 | 0.0382
B9 | 0.39 | 0.0552
B10 | 2.35 | 0.55

These binders were tested against T2, wild-type human Ang-2 (hAng-2-WT) (assay: SPR, captured Ab).

Binder | Kd [nM] | T1/2 [h]
B1 | 0.0095 | 74
B2 | 0.0125 | 30.6
B3 | 0.0226 | 14.9
B4 | 0.202 | 4.4
B5 | 0.0274 | 11
B6 | 0.043 | 9.43
B7 | 0.0475 | 8.9
B8 | 0.0449 | 11.1
B9 | 0.0362 | 12.5
B10 | 0.00948 | 65.5

Each binder was assayed against T4, Dimeric Human Ang-2FD conjugated to human IgG1 (human) (assay: SPR, captured Ab, RT).
T4 construct: also called Human Ang-2FD-hFc; hAng-2FD-hFc
Description: (§1) Antibody was captured on a goat anti-mouse IgG polyclonal antibody surface, a goat anti-human κ polyclonal antibody (Southern Biotech, Birmingham, Ala.) surface or a goat anti-human IgG polyclonal antibody (Jackson Immuno Research Lab, West Grove, Pa.) surface created through direct amine coupling to a BIACORE™ CM5 sensor chip to form a captured antibody surface. […] Antigen-antibody binding and dissociation were monitored in real time at room temperature. Kinetic analysis was performed to calculate KD and half-life of antigen/antibody complex dissociation.

Binder | Kd [nM] | T1/2 [h]
B11 | 0.22 | 0.642
B1 | 0.164 | 2.12
B2 | 0.118 | 1.82
B3 | 0.115 | 1.78
B4 | 0.386 | 0.95
B5 | 0.201 | 0.84
B12 | 0.262 | 0.443
B6 | 0.162 | 1.35
B7 | 0.234 | 1.03
B8 | 0.186 | 1.08
B9 | 0.331 | 1.43
B10 | 0.0882 | 4.23

What follows are binders tested against T5, Dimeric Mouse Ang-2FD conjugated to human IgG1 (mouse (Mus musculus); human) (assay: SPR, captured Ab, RT).
T5 construct: also called Mouse Ang-2FD-hFc
Description: as §1

T5 sequence (chain, as listed by the source limits assumed): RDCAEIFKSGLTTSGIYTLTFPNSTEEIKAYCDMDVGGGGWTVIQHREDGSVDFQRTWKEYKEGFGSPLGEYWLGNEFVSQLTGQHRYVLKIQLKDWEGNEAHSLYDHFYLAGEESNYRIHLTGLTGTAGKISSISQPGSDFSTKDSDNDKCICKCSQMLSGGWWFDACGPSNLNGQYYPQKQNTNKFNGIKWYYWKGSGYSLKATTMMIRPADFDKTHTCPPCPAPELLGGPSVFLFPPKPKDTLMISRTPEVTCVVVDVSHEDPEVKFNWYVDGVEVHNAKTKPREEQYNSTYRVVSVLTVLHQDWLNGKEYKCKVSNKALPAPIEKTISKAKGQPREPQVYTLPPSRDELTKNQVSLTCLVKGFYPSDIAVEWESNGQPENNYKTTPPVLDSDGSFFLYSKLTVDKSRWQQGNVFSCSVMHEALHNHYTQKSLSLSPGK

Binder | Kd [nM] | T1/2 [h]
B11 | 0.22 | 0.73
B1 | 0.218 | 2.02
B2 | 0.177 | 1.6
B3 | 0.185 | 1.4
B4 | 0.529 | 0.85
B5 | 0.357 | 0.783
B12 | 0.328 | 0.573
B6 | 5.76 | 0.333
B7 | 0.0971 | 1.5
B8 | 0.276 | 0.967
B9 | 0.484 | 1.03
B10 | 0.124 | 3.88

Each binder was assayed against T6, Dimeric Monkey Ang-2FD conjugated to human IgG1 (monkey (Macca fascicularis); human) (assay: SPR, captured Ab, RT).
T6 construct: also called Monkey Ang-2FD-hFc
Description: as §1

T6 sequence (chain, as listed by the source limits assumed): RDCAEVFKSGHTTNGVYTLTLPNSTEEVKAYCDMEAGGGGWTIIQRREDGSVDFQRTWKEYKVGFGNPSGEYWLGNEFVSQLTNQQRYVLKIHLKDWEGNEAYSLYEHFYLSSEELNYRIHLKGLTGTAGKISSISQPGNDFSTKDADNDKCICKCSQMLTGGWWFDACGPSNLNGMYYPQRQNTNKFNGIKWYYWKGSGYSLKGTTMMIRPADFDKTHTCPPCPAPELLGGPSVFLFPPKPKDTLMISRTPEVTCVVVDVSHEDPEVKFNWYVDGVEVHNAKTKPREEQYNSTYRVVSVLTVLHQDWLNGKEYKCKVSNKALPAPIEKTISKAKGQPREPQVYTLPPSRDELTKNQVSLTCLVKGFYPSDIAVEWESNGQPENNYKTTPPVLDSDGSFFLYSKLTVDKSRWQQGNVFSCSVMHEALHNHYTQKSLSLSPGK

Binder | Kd [nM] | T1/2 [h]
B11 | 0.29 | 0.683
B1 | 0.199 | 4.07
B2 | 0.407 | 2.38
B3 | 0.239 | 2.88
B4 | 0.439 | 1.97
B5 | 0.164 | 0.888
B12 | 0.283 | 0.372
B6 | 2 | 1.28
B7 | 3.4 | 1.45
B8 | 0.683 | 1.55
B9 | 0.818 | 0.558
B10 | 0.0965 | 13

Reference: US20140112930A1 (published 2014)
